± gives the uncertainty stated by the source.
B1: Glucocorticoid receptor, residues 419 to 494; numbered along this chain, P04150 (parent)
chain: KLCLVCSDEASGCHYGVLTCGSCKVFFKRAVEGQHNYLCAGRNDCIIDKIRRKNCPACRYRKCLQAGMNLEARKTK
B2: E3 ubiquitin-protein ligase NEDD4-like, residues 539 to 589; numbered along this chain, Q96PU5 (parent)
chain: KTSLNPNDLGPLPPGWEERIHLDGRTFYIDHNSKITQWEDPRLQNPAITGP

Variants of: B1
Test: abundance fitness (aPCA) (normalised: wild type 0, dead -1); higher = more abundant; growth selection in yeast, the domain comes from the species named
Conditions: Homo sapiens

Abundance fitness: each site, then its substitutions
R59: P -0.737 ± 0.11
L18: V 0 ± 0.041, G -0.191 ± 0.042
E32: Q -0.08 ± 0.046, K 0.01 ± 0.049
E9: H -0.052 ± 0.075
S7: W -0.115 ± 0.043
C3: V -1.13 ± 0.17
K24: I -0.245 ± 0.072
L70: R 0.023 ± 0.03
C20: K -0.948 ± 0.17
C6: G -0.934 ± 0.11
A66: K 0.024 ± 0.058
K62: F -0.158 ± 0.073, A -0.015 ± 0.034
D44: G -0.145 ± 0.036
I46: V -0.027 ± 0.031
A72: P -0.077 ± 0.055
P56: V -0.064 ± 0.032, A 0 ± 0.032
N69: P -0.252 ± 0.051
G12: H -0.096 ± 0.11, K -0.08 ± 0.047, R -0.074 ± 0.034
K53: A 0.014 ± 0.039
C55: T -0.849 ± 0.11
L2: Y 0.14 ± 0.065, A 0.056 ± 0.035
K28: P -0.243 ± 0.047
V31: P -0.567 ± 0.1
G67: T -0.51 ± 0.08
K76: S 0.099 ± 0.052
D8: T -0.195 ± 0.056
R29: Q -0.072 ± 0.045
G41: K 0.011 ± 0.048, V -0.051 ± 0.035
H14: S -0.076 ± 0.039
I50: L 0.046 ± 0.036
V17: R -0.141 ± 0.049, H -0.371 ± 0.098
K49: V 0.024 ± 0.037

Variants of: B2
Test: as above
Conditions: Homo sapiens

Abundance fitness of substitutions, site by site:
I35: F -0.16 ± 0.086, Y -0.291 ± 0.091, N -0.042 ± 0.091, G -0.301 ± 0.057, T 0.04 ± 0.059, M -0.239 ± 0.078, S -0.079 ± 0.06, L -0.035 ± 0.047, V -0.163 ± 0.058, A 0.008 ± 0.061, D -0.128 ± 0.068, K 0.065 ± 0.074, R 0.048 ± 0.042, C 0.002 ± 0.064, Q 0.029 ± 0.05
P41: D -0.98 ± 0.17, G -0.742 ± 0.049, E -0.718 ± 0.082, W -1.11 ± 0.067, R -0.758 ± 0.057, N -0.86 ± 0.17, T -0.875 ± 0.079, F -1.1 ± 0.1, K -0.868 ± 0.14, C -0.672 ± 0.12, A -0.947 ± 0.078, I -1.28 ± 0.13, H -1.08 ± 0.26, V -0.848 ± 0.052, M -0.367 ± 0.098, S -0.827 ± 0.063, Q -1.14 ± 0.13, Y -1.15 ± 0.28
W38: I -0.162 ± 0.039, N -0.059 ± 0.048, G -0.249 ± 0.04, H -0.121 ± 0.049, D 0.002 ± 0.053, E 0.068 ± 0.056, V -0.146 ± 0.041, K -0.029 ± 0.059, A -0.014 ± 0.044, P -0.223 ± 0.054, L -0.173 ± 0.041, Q -0.07 ± 0.041, M -0.127 ± 0.046, Y -0.041 ± 0.047, T 0.058 ± 0.05, F 0.066 ± 0.048
T49: Q -0.199 ± 0.092, F -0.165 ± 0.068, R -0.042 ± 0.044, G -0.045 ± 0.054, L -0.104 ± 0.052, H -0.089 ± 0.11, E -0.144 ± 0.091, N -0.313 ± 0.13, Y -0.286 ± 0.093, W -0.213 ± 0.063, S -0.077 ± 0.069, I -0.226 ± 0.12, A -0.121 ± 0.059, V -0.198 ± 0.061, P -0.135 ± 0.071, M -0.091 ± 0.055, D -0.086 ± 0.1, K -0.267 ± 0.095
K34: D -0.063 ± 0.082, A -0.176 ± 0.071, C -0.223 ± 0.053, I -0.875 ± 0.2, R -0.119 ± 0.042, H -0.087 ± 0.099, G -0.022 ± 0.044, N -0.053 ± 0.095, P -0.857 ± 0.063, T -0.218 ± 0.078, Y -0.39 ± 0.091, Q 0.076 ± 0.092, L -0.284 ± 0.053, M -0.105 ± 0.083, S -0.197 ± 0.046, W -0.547 ± 0.051, F -0.513 ± 0.089, E -0.251 ± 0.059, V -0.58 ± 0.049
D40: I -0.574 ± 0.13, Q -0.878 ± 0.13, M -0.639 ± 0.11, S -0.492 ± 0.058, F -0.566 ± 0.11, E -0.587 ± 0.069, C -0.639 ± 0.051, H -0.16 ± 0.054, A -0.528 ± 0.052, V -0.706 ± 0.052, K -0.585 ± 0.1, Y -0.53 ± 0.045, T -0.919 ± 0.11, P -0.401 ± 0.056, L -0.654 ± 0.071, G -0.731 ± 0.062
L43: N -0.183 ± 0.084, H -0.131 ± 0.12, A 0.007 ± 0.071, R -0.116 ± 0.056, Q -0.144 ± 0.091, C -0.11 ± 0.078, D -0.139 ± 0.1, T -0.069 ± 0.066, I -0.256 ± 0.084, W -0.333 ± 0.073, G -0.086 ± 0.05, F -0.104 ± 0.087, E -0.042 ± 0.073, V -0.088 ± 0.071, M -0.153 ± 0.073, Y -0.192 ± 0.1, P -0.089 ± 0.079
Q37: V -0.397 ± 0.041, A -0.443 ± 0.065, E -0.742 ± 0.059, N -0.511 ± 0.11, H 0.068 ± 0.11, W -0.564 ± 0.065, C -0.207 ± 0.094, F -0.358 ± 0.12, T 0.21 ± 0.067, L -0.703 ± 0.061, G -0.723 ± 0.047, Y -0.33 ± 0.096, K -0.357 ± 0.059, D -0.521 ± 0.089, M -0.231 ± 0.079, S -0.014 ± 0.049
T36: C 0.086 ± 0.07, F -0.261 ± 0.083, N -0.469 ± 0.16, H 0.032 ± 0.1, M -0.208 ± 0.068, P -0.608 ± 0.09, R -0.291 ± 0.05, A -0.341 ± 0.045, L -0.558 ± 0.06, E -0.119 ± 0.049, Q -0.336 ± 0.077, V -0.263 ± 0.045, G -0.224 ± 0.048, W -0.491 ± 0.056
Q44: T -0.078 ± 0.064, V -0.114 ± 0.05, M -0.049 ± 0.083, S -0.054 ± 0.053, E 0.074 ± 0.053, C -0.15 ± 0.08, P -0.135 ± 0.054, G -0.022 ± 0.05, R -0.039 ± 0.041, A -0.028 ± 0.072, D 0.028 ± 0.082, H -0.155 ± 0.059, F -0.218 ± 0.079, I -0.016 ± 0.092, N -0.091 ± 0.046, K 0.11 ± 0.097, Y -0.336 ± 0.12, W -0.27 ± 0.068
P46: Q -0.27 ± 0.11, T -0.051 ± 0.076, N -0.263 ± 0.11, F -0.228 ± 0.075, Y -0.317 ± 0.11, V -0.014 ± 0.064, A -0.06 ± 0.048, W -0.249 ± 0.069, L 0.161 ± 0.065, K 0.028 ± 0.075, M 0.084 ± 0.11, C -0.098 ± 0.046, S -0.048 ± 0.054, G 0.01 ± 0.053, H -0.105 ± 0.096, D -0.028 ± 0.086, E -0.39 ± 0.091, I -0.171 ± 0.07
P51: C -0.232 ± 0.098, V -0.65 ± 0.45, R -0.345 ± 0.25, T 0.009 ± 0.18, S -0.336 ± 0.12, G 0.13 ± 0.21, E -0.109 ± 0.45
A47: I -0.167 ± 0.083, W -0.296 ± 0.055, R 0.004 ± 0.053, H 0.235 ± 0.12, F -0.204 ± 0.07, D 0.218 ± 0.089, M -0.212 ± 0.072, L -0.083 ± 0.045, P 0.008 ± 0.065, E -0.002 ± 0.068, K -0.204 ± 0.097, Q 0.193 ± 0.083, N 0.011 ± 0.11, S -0.04 ± 0.068, G 0.01 ± 0.045, T -0.056 ± 0.065, V -0.042 ± 0.047, C -0.049 ± 0.074
E39: N -0.009 ± 0.076, V -0.233 ± 0.051, K -0.216 ± 0.084, G -0.183 ± 0.056, L -0.313 ± 0.057, C -0.194 ± 0.086, T -0.105 ± 0.084, A -0.15 ± 0.051, H -0.153 ± 0.07, F -0.45 ± 0.092, R -0.208 ± 0.049, I -0.251 ± 0.086, Y -0.412 ± 0.073, D -0.077 ± 0.063, W -0.456 ± 0.074, S -0.1 ± 0.053, M -0.245 ± 0.059, Q -0.362 ± 0.11
I48: F -0.306 ± 0.43, Q 1.1 ± 0.46, T 0.051 ± 0.21, L -0.123 ± 0.47, V 0.132 ± 0.31, M -0.176 ± 0.21, G 0.025 ± 0.054
N45: D -0.213 ± 0.076, F -0.634 ± 0.12, A -0.028 ± 0.074, E -0.046 ± 0.053, I -0.099 ± 0.088, G -0.045 ± 0.064, K 0.029 ± 0.047, S -0.011 ± 0.044, T -0.007 ± 0.066, L -0.094 ± 0.04, Y -0.157 ± 0.1, W -0.331 ± 0.064, Q -0.102 ± 0.063, R 0.003 ± 0.059, M -0.163 ± 0.083, V -0.106 ± 0.058, H -0.068 ± 0.063, C -0.103 ± 0.084
S33: W -0.802 ± 0.083, N -0.001 ± 0.075, Q -0.188 ± 0.098, K 0.05 ± 0.069, M -0.279 ± 0.11, T 0.066 ± 0.061, L -0.188 ± 0.053, V -0.385 ± 0.044, R 0.056 ± 0.048
G50: L 0.118 ± 0.08, R -0.18 ± 0.055, V -0.064 ± 0.1, P -0.213 ± 0.17, C -0.329 ± 0.12, W -0.143 ± 0.1, Y -0.202 ± 0.17, D 0.029 ± 0.076, H -0.555 ± 0.31, E 0.223 ± 0.14, M -0.284 ± 0.39, K 0.305 ± 0.45, A 0.012 ± 0.067, Q -0.351 ± 0.2, S -0.153 ± 0.093, T 0.166 ± 0.17
R42: W -1.18 ± 0.087, P -0.474 ± 0.083, Y -1.05 ± 0.067, H -0.67 ± 0.096, K -0.352 ± 0.11, L -0.787 ± 0.058, T -0.71 ± 0.053, S -0.661 ± 0.053, E -0.752 ± 0.052, G -0.656 ± 0.046, M -0.718 ± 0.06, N -0.687 ± 0.22, F -1.09 ± 0.19, D -1.15 ± 0.25, C -0.847 ± 0.12
